This assay has as its target Candida albicans cell surface hemoglobin receptor (Candida albicans). Nature of the assay: cell-based or functional assay.

In turn, hemoglobin registered a Renilla luciferase activity driven by the CaHMX1 promoter in C. albicans strain CAMP Ki-29, iron-sufficient medium, within 2.5 min of Hb addition greater than 10 fold.

The values are drawn from US20050209305A1.
